# From patent publication US20100267626
# T1: GST-Axin1 (a.a. 1-280), O35625
# T1 chain: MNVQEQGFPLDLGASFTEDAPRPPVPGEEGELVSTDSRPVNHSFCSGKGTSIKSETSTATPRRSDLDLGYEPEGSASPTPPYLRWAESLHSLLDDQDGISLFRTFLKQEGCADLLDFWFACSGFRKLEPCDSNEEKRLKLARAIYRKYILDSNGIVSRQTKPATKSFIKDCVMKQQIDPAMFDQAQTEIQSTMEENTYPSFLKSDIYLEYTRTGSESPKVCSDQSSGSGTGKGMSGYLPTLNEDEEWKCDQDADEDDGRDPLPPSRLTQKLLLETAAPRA
# B1: Recombinant TNKS2 (in vitro PARsylation assay) (protein)
# chain: MSGRRCAGGGAACASAAAEAVEPAARELFEACRNGDVERVKRLVTPEKVNSRDTAGRKSTPLHFAAGFGRKDVVEYLLQNGANVQARDDGGLIPLHNACSFGHAEVVNLLLRHGADPNARDNWNYTPLHEAAIKGKIDVCIVLLQHGAEPTIRNTDGRTALDLADPSAKAVLTGEYKKDELLESARSGNEEKMMALLTPLNVNCHASDGRKSTPLHLAAGYNRVKIVQLLLQHGADVHAKDKGDLVPLHNACSYGHYEVTELLVKHGACVNAMDLWQFTPLHEAASKNRVEVCSLLLSYGADPTLLNCHNKSAIDLAPTPQLKERLAYEFKGHSLLQAAREADVTRIKKHLSLEMVNFKHPQTHETALHCAAASPYPKRKQICELLLRKGANINEKTKEFLTPLHVASEKAHNDVVEVVVKHEAKVNALDNLGQTSLHRAAYCGHLQTCRLLLSYGCDPNIISLQGFTALQMGNENVQQLLQEGISLGNSEADRQLLEAAKAGDVETVKKLCTVQSVNCRDIEGRQSTPLHFAAGYNRVSVVEYLLQHGADVHAKDKGGLVPLHNACSYGHYEVAELLVKHGAVVNVADLWKFTPLHEAAAKGKYEICKLLLQHGADPTKKNRDGNTPLDLVKDGDTDIQDLLRGDAALLDAAKKGCLARVKKLSSPDNVNCRDTQGRHSTPLHLAAGYNNLEVAEYLLQHGADVNAQDKGGLIPLHNAASYGHVDVAALLIKYNACVNATDKWAFTPLHEAAQKGRTQLCALLLAHGADPTLKNQEGQTPLDLVSADDVSALLTAAMPPSALPSCYKPQVLNGVRSPGATADALSSGPSSPSSLSAASSLDNLSGSFSELSSVVSSSGTEGASSLEKKEVPGVDFSITQFVRNLGLEHLMDIFEREQITLDVLVEMGHKELKEIGINAYGHRHKLIKGVERLISGQQGLNPYLTLNTSGSGTILIDLSPDDKEFQSVEEEMQSTVREHRDGGHAGGIFNRYNILKIQKVCNKKLWERYTHRRKEVSEENHNHANERMLFHGSPFVNAIIHKGFDERHAYIGGMFGAGIYFAENSSKSNQYVYGIGGGTGCPVHKDRSCYICHRQLLFCRVTLGKSFLQFSAMKMAHSPPGHHSVTGRPSVNGLALAEYVIYRGEQAYPEYLITYQIMRPEGMVDG
# Target: T1, GST-Axin1 (a.a. 1-280), O35625
protein,measurement,value
B1,"in vitro PARsylation with biotin-NAD+ (SDS-PAGE, streptavidin probe)","TNKS2 was able to PARsylate an Axin1 fragment (a.a. 1-280) containing the TBD in vitro, which was completely inhibited by XAV939 treatment"
